The labels stand for the following.
B1: AP fusion with the ectodomain of Sema VIa (ligand, UniProt O35464 19-649, looked up)
chain: GFPEDSEPISISHGNYTKQYPVFVGHKPGRNTTQRHRLDIQMIMIMNRTLYVAARDHIYTVDIDTSHTEEIYCSKKLTWKSRQADVDTCRMKGKHKDECHNFIKVLLKKNDDTLFVCGTNAFNPSCRNYRVDTLETFGDEFSGMARCPYDAKHANIALFADGKLYSATVTDFLAIDAVIYRSLGDSPTLRTVKHDSKWLKEPYFVQAVDYGDYIYFFFREIAVEYNTMGKVVFPRVAQVCKNDMGGSQRVLEKQWTSFLKARLNCSVPGDSHFYFNILQAVTDVIRINGRDVVLATFSTPYNSIPGSAVCAYDMLDIANVFTGRFKEQKSPDSTWTPVPDERVPKPRPGCCAGSSSLEKYATSNEFPDDTLNFIKTHPLMDEAVPSIINRPWFLRTMVRYRLTKIAVDNAAGPYQNHTVVFLGSEKGIILKFLARIGSSGFLNGSLFLEEMNVYNPEKCSYDGVEDKRIMGMQLDRASGSLYVAFSTCVIKVPLGRCERHGKCKKTCIASRDPYCGWVRESGSCAHLSPLSRLTFEQDIERGNTDGLGDCHNSFVALNGHASSLYPSTTTSDSASRDGYESRGGMLDWNDLLEAPGSTDPLGAVSSHNHQDKKGVIRESYLKSNDQLVPVT
notes: extracellular domain; also called Sema VIa ectodomain; not shown: alkaline phosphatase (AP) reporter
B2: rat semaphorin receptor 1 (rSR1), full length, expressed on cells (receptor)
chain: FRSDKCGGTIKIENPGYLTSPGYPHSYHPSEKCEWLIQAPEPYQRIMINFNPHFDLEDRDCKYDYVEVIDGENEGGRLWGKFCGKIAPSPVVSSGPFLFIKFVSDYETHGAGFSIRYEIFKRGPECSQNYTAPTGVIKSPGFPEKYPNSLECTYIIFAPKMSEIILEFESFDLEQDSNPPGGMFCRYDRLEIWDGFPEVGPHIGRYCGQKTPGRIRSSSGILSMVFYTDSAIAKEGFSANYSVLQSSISEDFKCMEALGMESGEIHSDQITASSQYGTNWSVERSRLNYPENGWTPGEDSYREWIQVDLGLLRFVTAVGTQGAISKETKKKYYVKTYRVDISSNGEDWITLKEGNKAIIFQGNTNPTDVVFGVFPKPLITRFVRIKPASWETGISMRFEVYGCKITDYPCSGMLGMVSGLISDSQITASNQGDRNWMPENIRLVTSRTGWALPPSPHPYINEWLQVDLGDEKIVRGVIIQGGKHRENKVFMRKFKIAYSNNGSDWKMIMDDSKRKAKSFEGNNNYDTPELRAFTPLSTRFIRIYPERATHSGLGLRMELLGCEVEVPTAGPTTPNGNPVDECDDDQANCHSGTGDDFQLTGGTTVLATEKPTIIDSTIQSEFPTYGFNCEFGWGSHKTFCHWEHDSHAQLRWRVLTSKTGPIQDHTGDGNFIYSQADENQKGKVARLVSPVVYSQSSAHCMTFWYHMSGSHVGTLRVKLHYQKPEEYDQLVWMVVGHQGDHWKEGRVLLHKSLKLYQVIFEGEIGKGNLGGIAVDDISINNHIPQEDCAKPTDLDKKNTEIKIDETGSTPGYEEGKGDKNISRKPGNVLKTLDPILITIIAMSALGVLLGAVCGVVLYCACWHNGMSERNLSALENYNFELVDGVKLKKDKLNPHSNYSEA
notes: also called rat SR1; p28
B3: neuropilin-1 transiently expressed in COS-7 cells (receptor)
chain: B2 chain with M183V, H895Q
notes: also called npn-1; SR1
B4: AP fusion protein comprising only the C domain of SemaIII (AP-C) (ligand)
chain: IIPVEEENPDFWNREAAEALGAAKKLQPAQTAAKNLIIFLGDGMGVSTVTAARILKGQKKDKLGPEIPLAMDRFPYVALSKTYNVDKHVPDSGATATAYLCGVKGNFQTIGLSAAARFNQCNTTRGNEVISVMNRAKKAGKSVGVVTTTRVQHASPAGTYAHTVNRNWYSDADVPASARQEGCQDIATQLISNMDIDVILGGGRKYMFRMGTPDPEYPDDYSQGGTRLDGKNLVQEWLAKRQGARYVWNRTELMQASLDPSVTHLMGLFEPGDMKYEIHRDSTLDPSLMEMTEAALRLLSRNPRGFFLFVEGGRIDHGHHESRAYRALTETIMFDDAIERAGQLTSEEDTLSLVTADHSHVFSFGGYPLRGSSIFGLAPGKARDRKAYTVLLYGNGPGYVLKDGARPDVTESESGSPEYRQQSAVPLDEETHAGEDVAVFARGPQAHLVHGVQEQTFIAHVMAFAACLEPYTACDLAPPAGTTDAAHPGGFIQTLLKVTLEVIDTEHLEELLHKDDDGDGSKTKEMSNSMTPSQKVWYRDFMQLINHPNLNTMDEFCEQVWKRDRKQRRQRPGHTPGNSNKWKHLQENKK

The target in assay [1] is T1, mouse neuropilin-2(a0), myc-tagged, expressed in COS-7 cells (mouse, UniProt O35375 21-931).
T1 construct: also called SR2(a)0; m-npn-2
T1 sequence: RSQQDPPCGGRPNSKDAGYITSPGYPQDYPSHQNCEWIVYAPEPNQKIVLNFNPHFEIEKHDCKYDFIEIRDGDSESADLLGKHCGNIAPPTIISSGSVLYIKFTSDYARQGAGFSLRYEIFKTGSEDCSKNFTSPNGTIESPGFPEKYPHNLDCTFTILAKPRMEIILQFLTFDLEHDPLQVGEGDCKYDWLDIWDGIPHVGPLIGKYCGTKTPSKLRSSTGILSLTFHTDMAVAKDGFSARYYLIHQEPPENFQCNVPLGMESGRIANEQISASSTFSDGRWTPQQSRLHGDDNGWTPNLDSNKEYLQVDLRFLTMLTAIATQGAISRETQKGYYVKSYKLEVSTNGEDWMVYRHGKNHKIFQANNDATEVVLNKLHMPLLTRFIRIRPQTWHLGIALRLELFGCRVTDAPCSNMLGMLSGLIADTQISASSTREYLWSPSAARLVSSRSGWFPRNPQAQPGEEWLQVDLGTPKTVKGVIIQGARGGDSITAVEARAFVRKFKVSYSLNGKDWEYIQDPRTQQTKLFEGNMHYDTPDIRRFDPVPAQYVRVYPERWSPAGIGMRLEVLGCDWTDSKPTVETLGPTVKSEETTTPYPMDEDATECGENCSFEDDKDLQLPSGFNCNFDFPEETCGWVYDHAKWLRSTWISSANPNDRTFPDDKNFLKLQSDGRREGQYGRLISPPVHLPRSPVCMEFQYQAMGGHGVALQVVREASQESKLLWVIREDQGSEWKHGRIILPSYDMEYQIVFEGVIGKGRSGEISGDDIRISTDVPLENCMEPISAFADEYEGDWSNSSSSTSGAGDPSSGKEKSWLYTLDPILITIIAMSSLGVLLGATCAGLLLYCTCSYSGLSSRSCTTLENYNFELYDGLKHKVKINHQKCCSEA
Briefly: AP fusion binding to transfected COS cells.

Assay [2] deals with T2, mouse neuropilin-2(a5), myc-tagged, expressed in COS-7 cells (mouse, UniProt O35375 21-931).
T2 construct: also called a5 isoform of neuropilin-2; SR2(a)5
T2 sequence: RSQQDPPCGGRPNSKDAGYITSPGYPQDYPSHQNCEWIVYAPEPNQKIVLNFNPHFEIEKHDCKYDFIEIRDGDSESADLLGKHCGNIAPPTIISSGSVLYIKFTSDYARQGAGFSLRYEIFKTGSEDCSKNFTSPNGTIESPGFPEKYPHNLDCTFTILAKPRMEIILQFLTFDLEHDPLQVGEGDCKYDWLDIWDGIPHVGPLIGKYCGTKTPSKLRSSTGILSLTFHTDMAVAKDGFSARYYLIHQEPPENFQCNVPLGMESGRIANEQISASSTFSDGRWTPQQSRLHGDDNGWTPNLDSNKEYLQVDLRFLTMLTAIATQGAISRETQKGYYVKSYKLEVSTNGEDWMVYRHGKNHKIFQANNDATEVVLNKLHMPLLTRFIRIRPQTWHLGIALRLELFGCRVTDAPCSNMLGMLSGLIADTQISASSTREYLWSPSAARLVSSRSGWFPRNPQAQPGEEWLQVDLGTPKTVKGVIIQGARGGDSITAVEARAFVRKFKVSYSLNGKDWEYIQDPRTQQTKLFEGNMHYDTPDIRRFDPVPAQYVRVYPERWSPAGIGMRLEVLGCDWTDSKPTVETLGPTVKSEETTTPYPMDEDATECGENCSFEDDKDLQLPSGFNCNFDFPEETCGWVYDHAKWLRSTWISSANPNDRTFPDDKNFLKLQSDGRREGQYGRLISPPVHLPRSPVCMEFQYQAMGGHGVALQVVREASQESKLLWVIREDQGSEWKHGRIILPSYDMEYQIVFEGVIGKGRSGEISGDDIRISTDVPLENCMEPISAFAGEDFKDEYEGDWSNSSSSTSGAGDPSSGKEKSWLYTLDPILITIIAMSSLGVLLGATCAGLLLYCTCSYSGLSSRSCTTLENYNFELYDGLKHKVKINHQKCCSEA
Briefly: AP fusion binding to transfected COS cells.

Assay [3] deals with T3, mouse neuropilin-2(a22), myc-tagged, expressed in COS-7 cells (mouse, UniProt O35375 21-931).
T3 construct: also called SR2(a)22
T3 sequence: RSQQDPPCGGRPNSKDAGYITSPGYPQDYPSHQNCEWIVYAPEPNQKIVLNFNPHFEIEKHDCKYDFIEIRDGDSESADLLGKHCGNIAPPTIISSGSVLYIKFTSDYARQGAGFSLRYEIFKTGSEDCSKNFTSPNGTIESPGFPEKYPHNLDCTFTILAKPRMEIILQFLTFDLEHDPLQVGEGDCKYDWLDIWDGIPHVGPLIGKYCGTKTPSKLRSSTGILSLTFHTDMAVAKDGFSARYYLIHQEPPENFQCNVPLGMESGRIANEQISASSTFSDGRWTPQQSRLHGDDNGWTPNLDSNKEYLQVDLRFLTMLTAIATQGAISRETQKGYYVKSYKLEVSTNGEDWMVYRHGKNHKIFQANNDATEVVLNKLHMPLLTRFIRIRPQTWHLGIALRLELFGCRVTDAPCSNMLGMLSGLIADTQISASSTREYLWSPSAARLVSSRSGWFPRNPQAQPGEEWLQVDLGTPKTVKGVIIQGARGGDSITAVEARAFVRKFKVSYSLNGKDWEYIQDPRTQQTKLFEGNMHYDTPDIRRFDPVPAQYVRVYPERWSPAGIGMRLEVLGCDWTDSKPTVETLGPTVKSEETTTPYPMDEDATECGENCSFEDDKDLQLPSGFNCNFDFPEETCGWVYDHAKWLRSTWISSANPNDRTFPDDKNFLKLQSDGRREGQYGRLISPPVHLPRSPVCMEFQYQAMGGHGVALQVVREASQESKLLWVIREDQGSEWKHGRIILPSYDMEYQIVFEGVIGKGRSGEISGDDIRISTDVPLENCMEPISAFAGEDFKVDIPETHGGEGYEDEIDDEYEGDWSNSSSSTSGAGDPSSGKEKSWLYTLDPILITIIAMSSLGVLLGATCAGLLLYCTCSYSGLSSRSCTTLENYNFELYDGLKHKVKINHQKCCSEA
Briefly: AP fusion binding to transfected COS cells.

Assay [4] addresses T4, SemaIII-AP fusion protein (full-length Sema III fused at its carboxy terminus to alkaline phosphatase). Briefly: equilibrium binding of AP fusion to 293-EBNA cells stably expressing rat SR1, Hill fit.
In assay [5] the target is AP fusion protein comprising just the semaphorin domain of SemaIII (AP-S). Described as above.
For assay [6], the target named is T4, SemaIII-AP fusion protein (full-length …). Briefly: equilibrium binding of AP fusion to neuropilin-1-expressing cells, Hill fit.
Assay [7] deals with B2. Briefly: equilibrium binding of AP fusion to 293-EBNA cells stably expressing rat SR1, Hill fit.

Residue numbers refer to the chain shown, from its start. Several values for one entry are separate records, joined by “and”; a condition that tells them apart may be missing. Equal entries are not always repeated.

As for B1, the binding result in assay [1], in assay [2] and in assay [3] was “no binding” each time.

Usually Kd stands for the concentration at which binding is half-saturated. A low value points to a tighter complex. In the case of B2, the Kd in assay [4] was 0.0553 µg/mL and 0.325 nM; in assay [5] it was 0.219 µg/mL and 1.45 nM.

In the case of B3, in assay [6], binding was put at a Kd of 0.325 nM.

Take B4: the Kd in assay [7] is 0.84 nM and 0.0672 µg/mL.
